The supplement of paper PMC9233669
This sample holds only a part of the variants without activity.

What was measured:
biotinyl-Val-oxazolone = assay: self-aminoacylation, catalytic enhancement (BVO) (fold over background); higher = more active; k-Seq, kA / k0A0; sequences stand for … in GGGAAUGGAUCCACAUCUACGAAUUC…UUCACUGCAGACUUGACGAAGCUG
Procedure, shortened: (§1)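 Mutagenized RNA pools with a 21-nt variable region (0.43 μM) reacted with each biotinyl-aminoacyl-oxazolone at 2–1250 μM. Reactions ran in 50 μL HEPES/NaCl/KCl/MgCl2/CaCl2 buffer with 5% acetonitrile, pH 6.9–7.0, for 90 minutes at room temperature. Streptavidin-captured RNA was quantified by triplicate qPCR and Illumina sequencing, and per-sequence fraction reacted was fit to a pseudo-first-order model with 1000 bootstraps. Catalytic enhancement is median kA divided by the uncatalyzed rate, the low-activity peak of a bimodal Gaussian fit.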

biotinyl-Phe-oxazolone = assay: self-aminoacylation, catalytic enhancement (BFO) (fold over background); higher = more active; k-Seq, kA / k0A0; sequences stand for … in GGGAAUGGAUCCACAUCUACGAAUUC…UUCACUGCAGACUUGACGAAGCUG
Procedure, shortened: as §1

biotinyl-Ile-oxazolone = assay: self-aminoacylation, catalytic enhancement (BIO) (fold over background); higher = more active; k-Seq, kA / k0A0; sequences stand for … in GGGAAUGGAUCCACAUCUACGAAUUC…UUCACUGCAGACUUGACGAAGCUG
Procedure, shortened: as §1

biotinyl-Leu-oxazolone = assay: self-aminoacylation, catalytic enhancement (BLO) (fold over background); higher = more active; k-Seq, kA / k0A0; sequences stand for … in GGGAAUGGAUCCACAUCUACGAAUUC…UUCACUGCAGACUUGACGAAGCUG
Procedure, shortened: as §1

biotinyl-Trp-oxazolone = assay: self-aminoacylation, catalytic enhancement (BWO) (fold over background); higher = more active; k-Seq, kA / k0A0; sequences stand for … in GGGAAUGGAUCCACAUCUACGAAUUC…UUCACUGCAGACUUGACGAAGCUG
Procedure, shortened: as §1

biotinyl-Met-oxazolone = assay: self-aminoacylation, catalytic enhancement (BMO) (fold over background); higher = more active; k-Seq, kA / k0A0; sequences stand for … in GGGAAUGGAUCCACAUCUACGAAUUC…UUCACUGCAGACUUGACGAAGCUG
Procedure, shortened: as §1

Sequence	self-aminoacylation (biotinyl-Val-oxazolone)	self-aminoacylation (biotinyl-Phe-oxazolone)	self-aminoacylation (biotinyl-Ile-oxazolone)	self-aminoacylation (biotinyl-Leu-oxazolone)	self-aminoacylation (biotinyl-Trp-oxazolone)	self-aminoacylation (biotinyl-Met-oxazolone)
CCACACAUCAAGCGAUCGGUC [Fam1B.1 aminoacylation ribozyme variant]	1.07	0.766	0.954	0.969	1.38	1.09
ACUACCAUGGUCAUCGAGUGA [Fam2.1 aminoacylation ribozyme variant]	4.53	34.8	4.61	7.97	9.5	6.31
AUUACCCAGGUCAUCGAGUAA [Fam2.1 aminoacylation ribozyme variant]	1.06	1.09	1.49	1.16	1.57	1.54
AUUCACCUUGGUCAUCGGGCG [Fam2.2 aminoacylation ribozyme variant]	2.77	3.77	2.74	3.24	2.93	2.81
GAGUUUGCUAAUAGUCGCCAG [Fam3.1 aminoacylation ribozyme variant]	1.69	2.04	2.51	1.47	2.6	2.45
CUACUUCAAACAGUCGGUCUA [Fam1A.1 aminoacylation ribozyme variant]	0.893	0.734	0.938	0.817	0.576	0.856
CCACACGACAAGCAAUCGGUC [Fam1B.1 aminoacylation ribozyme variant]	1.37	0.767	0.924	0.697	0.908	0.948
AGUCUCCUAGGUCAUCGGGUG [Fam2.2 aminoacylation ribozyme variant]	6.91	58.7	5.63	12.9	9.36	9.95
AGUCACCUAGAUCAUCGGGUG [Fam2.2 aminoacylation ribozyme variant]	3.06	17.5	3.96	3.5	4.5	3.33
AUUACCCUGGUCAUCGCGUAA [Fam2.1 aminoacylation ribozyme variant]	3.48	28.4	2.73	2.97	5.11	4.04
AUUACCCUGGUCUUCGAGGGA [Fam2.1 aminoacylation ribozyme variant]	1.35	0.74	1.5	1.54	1.31	1.15
CUACUUCAAACAAUAGUUCUG [Fam1A.1 aminoacylation ribozyme variant]	0.511	0.553	0.624	0.532	0.325	0.53
CUACUUCAACCAAUCGAUCUG [Fam1A.1 aminoacylation ribozyme variant]	0.665	1.98	0.763	0.598	1.04	0.62
AUCCAGCUAGGUCAUCGGGUG [Fam2.2 aminoacylation ribozyme variant]	6.15	47.5	4.76	6.74	7.36	5.63
GAGUUUGCAAAUAGUCGCAAG [Fam3.1 aminoacylation ribozyme variant]	0.746	1.83	1.22	1.02	0.87	0.838
CUCCUUCAAACAAUCGAUCUG [Fam1A.1 aminoacylation ribozyme variant]	0.705	2.82	0.586	0.589	1.2	0.571
CCACACUUCAAGCAAUGGGUA [Fam1B.1 aminoacylation ribozyme variant]	1.4	0.907	1.35	1.31	1.35	1.39
CCACACUUCAAGAAAUCGUUC [Fam1B.1 aminoacylation ribozyme variant]	0.602	0.735	0.472	0.529	0.399	0.482
CCACACUUCAAACUAUCGGUC [Fam1B.1 aminoacylation ribozyme variant]	0.909	1.09	0.976	0.83	0.882	0.781
CUACUUCGAACAAUCGGUCUC [Fam1A.1 aminoacylation ribozyme variant]	0.683	0.828	0.781	0.648	0.507	0.66
ACGUUUGCUAAUAGUCGUAAG [Fam3.1 aminoacylation ribozyme variant]	1.1	15.7	1.14	1.04	4.64	1.27
CUGCUUCAAACAAUCGGUCGG [Fam1A.1 aminoacylation ribozyme variant]	1.71	183	1.48	3.72	59.6	2.05
CUAUUUCAAACAAGCGGUCUG [Fam1A.1 aminoacylation ribozyme variant]	0.933	0.738	1.01	1.02	0.77	0.882
AUUCACCUAGGUCACUGGGUG [Fam2.2 aminoacylation ribozyme variant]	1.72	19.7	1.8	3.93	2.52	2.82
AAUACCCUGGUCAUCUAGUGA [Fam2.1 aminoacylation ribozyme variant]	3.66	28.3	3.19	7.36	8.94	6.98
AAGUCUGCUAAUGGUCGCAAG [Fam3.1 aminoacylation ribozyme variant]	0.865	5.79	0.882	0.959	0.919	1.3

Sequence	self-aminoacylation (biotinyl-Val-oxazolone)	self-aminoacylation (biotinyl-Phe-oxazolone)	self-aminoacylation (biotinyl-Ile-oxazolone)	self-aminoacylation (biotinyl-Leu-oxazolone)	self-aminoacylation (biotinyl-Trp-oxazolone)	self-aminoacylation (biotinyl-Met-oxazolone)
CUAAUUCAAACAUUCGGUCUG [Fam1A.1 aminoacylation ribozyme variant]	0.979	0.983	1.05	1.02	1.02	1.03
AUGCACCUACGUCAUCGGGUG [Fam2.2 aminoacylation ribozyme variant]	4.21	60.7	3.57	7.54	6.56	7.02
AUUACCCUGGUGAUCGGGUGA [Fam2.1 aminoacylation ribozyme variant]	4.27	39.5	3.43	7.07	6.86	5.18
AUUCACCUAGGGCAUCGGGAG [Fam2.2 aminoacylation ribozyme variant]	1.04	0.472	1.07	1.1	1.08	0.855
UUUACCCUGGUCCUCGAGUGA [Fam2.1 aminoacylation ribozyme variant]	2.58	17.8	1.96	3.67	4.06	4.26
CUACUUCAAACAAUCGAUCUC [Fam1A.1 aminoacylation ribozyme variant]	0.799	2.76	0.502	0.5	0.881	0.322
AUUCACCCAGGUCAUCGGGAG [Fam2.2 aminoacylation ribozyme variant]	1.48	0.732	1.22	1.28	1.47	1.28
AAGUUUACUAAUAGUAGCAAG [Fam3.1 aminoacylation ribozyme variant]	1.22	1.97	1.54	1.17	0.98	1.28
AUUCACAUAGGUCAUCGGGUU [Fam2.2 aminoacylation ribozyme variant]	1.76	8.48	1.9	2.22	1.97	2.13
CUACUUCAAAAGAUCGGUCUG [Fam1A.1 aminoacylation ribozyme variant]	0.724	1.08	0.973	0.859	0.938	0.728
CUACUUCAAAAAAUCGCUCUG [Fam1A.1 aminoacylation ribozyme variant]	0.484	0.901	0.539	0.486	0.727	0.492
CUUCACCUAGGUUAUCGGGUG [Fam2.2 aminoacylation ribozyme variant]	3.51	12.2	3.13	4.8	3.63	5.11
AUUCACCUAGGGCAUCGAGUG [Fam2.2 aminoacylation ribozyme variant]	1.2	1.76	1.26	1.65	0.91	1.45
CUUACCCUGGUUAUCGAGUGA [Fam2.1 aminoacylation ribozyme variant]	3.58	23.2	3.35	7.11	8.54	6.78
GAGUUUGCUAAUGGUCGCAAG [Fam3.1 aminoacylation ribozyme variant]	1.02	2.82	0.99	0.903	1.16	0.779
CGACUUCAACCAAUCGGUCUG [Fam1A.1 aminoacylation ribozyme variant]	1.42	64.2	1.56	2.26	31.6	1.35
AUUACCCUGAUCAUCGUGUGA [Fam2.1 aminoacylation ribozyme variant]	2.67	27.5	2.37	5.65	5.88	5.72
GUUCACGUAGGUCAUCGGGUG [Fam2.2 aminoacylation ribozyme variant]	4.2	30.3	3.06	4.45	5.39	4.57
AUUCUCCGAGGUCAUCGGGUG [Fam2.2 aminoacylation ribozyme variant]	10.6	141	9.69	22	14.7	16.7
AUGACCCUGGUCAUCGAGUGC [Fam2.1 aminoacylation ribozyme variant]	2.96	17.4	2.61	6.92	4	7.15
AAGUUUGCUAAUAGUCGGCAG [Fam3.1 aminoacylation ribozyme variant]	0.785	1.3	0.923	0.983	1.28	0.98
AUUAGCCUGGUCAUUGAGUGA [Fam2.1 aminoacylation ribozyme variant]	5.01	62.6	4.89	10.3	12.3	9.25
AUUGCCCUGGUCAUCAAGUGA [Fam2.1 aminoacylation ribozyme variant]	1.65	5.6	1.39	2.05	2.85	2.36
AUUCACCUAAGACAUCGGGUG [Fam2.2 aminoacylation ribozyme variant]	3.13	33.4	3.05	5.92	4.54	4.49
UUUCACCUAGGUCAUCGGGGG [Fam2.2 aminoacylation ribozyme variant]	3.25	21.3	3.52	4.45	3.77	2.73
